T1: NS0-derived recombinant mouse DDR2-Fc chimera protein (mouse, UniProt Q62371 24-399)
T1 construct: discoidin domain receptor 2 (DDR2), mouse, ectodomain Gln24-Arg399; also called 7479-DR; source: bought: R&D Systems (7479-DR), NS0-derived; not shown: Fc (mouse IgG2A, Glu98-Lys330), C-terminal, kept
T1 sequence (looked up): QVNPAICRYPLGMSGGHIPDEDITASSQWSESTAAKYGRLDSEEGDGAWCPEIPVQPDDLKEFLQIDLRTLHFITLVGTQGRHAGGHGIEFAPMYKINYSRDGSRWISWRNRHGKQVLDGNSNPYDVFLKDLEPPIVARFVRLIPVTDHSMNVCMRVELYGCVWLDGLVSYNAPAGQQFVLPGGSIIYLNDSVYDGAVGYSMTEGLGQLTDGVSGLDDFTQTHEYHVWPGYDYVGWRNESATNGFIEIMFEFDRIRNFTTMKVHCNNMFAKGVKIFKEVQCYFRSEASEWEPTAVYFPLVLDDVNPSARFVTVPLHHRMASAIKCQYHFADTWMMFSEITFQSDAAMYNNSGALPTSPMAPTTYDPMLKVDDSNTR

B1: Recombinant human DDR2 possessing the ectodomain of DDR2 (Gln24-Arg399) with 6 × His-tag on C-terminal (domain or fragment, UniProt Q16832 24-399, looked up)
chain: QVNPAICRYPLGMSGGQIPDEDITASSQWSESTAAKYGRLDSEEGDGAWCPEIPVEPDDLKEFLQIDLHTLHFITLVGTQGRHAGGHGIEFAPMYKINYSRDGTRWISWRNRHGKQVLDGNSNPYDIFLKDLEPPIVARFVRFIPVTDHSMNVCMRVELYGCVWLDGLVSYNAPAGQQFVLPGGSIIYLNDSVYDGAVGYSMTEGLGQLTDGVSGLDDFTQTHEYHVWPGYDYVGWRNESATNGYIEIMFEFDRIRNFTTMKVHCNNMFAKGVKIFKEVQCYFRSEASEWEPNAISFPLVLDDVNPSARFVTVPLHHRMASAIKCQYHFADTWMMFSEITFQSDAAMYNNSEALPTSPMAPTTYDPMLKVDDSNTR
notes: discoidin domain receptor 2 (DDR2), human, ectodomain Gln24-Arg399; also called sDDR2; sDDR; source: bought: R&D Systems (2538-DR); not shown: 6xHis, C-terminal, kept
B2: C1qA peptide (Biotin-GSKGEQGEPGAPGI) (peptide)
peptide: Biotin-GSKGEQGEPGAPGI
notes: first two residues of the printed peptide; also called C1q collagen tail peptide; biotinylated C1qA peptide; source: synthetic peptide (GenScript)

What all share (details): both partners purified
One test concerns the target T2, human C1q protein (human, UniProt P02745 23-245; P02746 28-253; P02747 29-245).
T2 construct: complement C1q subcomponent subunit A, human; complement C1q subcomponent subunit B, human; complement C1q subcomponent subunit C, human; the bought protein is purified from human serum; source: bought: Sigma-Aldrich (C1740); for stimulation of cells Complement Technologies (A099); copies: + +
As to the kind of experiment: SPR; Biacore 3000; sDDR2 immobilised on CM5 chip; C1q 0, 2.5, 5, 10, 20, 40 μg/mL as analyte; 10 mM HEPES pH 7.4, 25 °C, 10 μL/min. Background: SPR reads the build-up and loss of mass on a sensor chip optically.

Test [1] concerns the target B1. As to the kind of experiment: ELISA; C1qA peptide or control peptide coated at 8 μg/mL; sDDR2 (0.1, 0.5, 2, 8 μg/mL) added, RT, 2 h; detected with AP-conjugated anti-6x-His. A general note: An ELISA detects its analyte on a solid surface through an enzyme-linked reagent.
The target of test [2] is T1, NS0-derived recombinant mouse DDR2-Fc …. As to the kind of experiment: far-Western, overlay or dot blot; DDR2-Fc, DDR1-Fc or Fc (20 μg per spot) blotted on nitrocellulose; biotinylated C1qA peptide (200 nM) in 3% skim milk, RT, 2 h; detected with streptavidin.

Where no end group is shown, it is not given here. The star is where a group is joined. Biotin = O=C1N[C@H]2[C@H](CS[C@H]2CCCCC(=O)*)N1

T2 sequence (P02745 23-245, chain 1 of 3): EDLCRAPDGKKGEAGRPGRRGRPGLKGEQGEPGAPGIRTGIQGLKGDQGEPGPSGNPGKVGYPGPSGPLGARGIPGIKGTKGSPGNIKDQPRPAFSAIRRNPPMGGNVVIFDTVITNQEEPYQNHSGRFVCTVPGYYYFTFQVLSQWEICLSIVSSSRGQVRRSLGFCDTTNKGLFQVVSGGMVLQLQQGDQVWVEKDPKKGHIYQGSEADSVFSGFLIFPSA
T2 sequence (P02746 28-253, chain 2 of 3): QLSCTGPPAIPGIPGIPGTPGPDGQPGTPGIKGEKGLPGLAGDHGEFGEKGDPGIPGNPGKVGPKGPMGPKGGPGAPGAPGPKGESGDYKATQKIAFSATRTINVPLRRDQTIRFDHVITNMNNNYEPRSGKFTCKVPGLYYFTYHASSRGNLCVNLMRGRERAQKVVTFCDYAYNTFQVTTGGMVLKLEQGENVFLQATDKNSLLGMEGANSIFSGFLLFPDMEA
T2 sequence (P02747 29-245, chain 3 of 3): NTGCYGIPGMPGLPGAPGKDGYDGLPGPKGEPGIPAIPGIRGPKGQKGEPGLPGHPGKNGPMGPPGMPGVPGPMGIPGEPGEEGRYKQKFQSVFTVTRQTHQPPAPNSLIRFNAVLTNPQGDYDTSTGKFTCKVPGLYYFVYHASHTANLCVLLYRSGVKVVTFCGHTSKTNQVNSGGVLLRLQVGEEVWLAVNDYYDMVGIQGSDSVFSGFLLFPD

For B1, in the test with human C1q protein, the Kd – broadly, a measure of binding affinity in units of concentration – was 183 nM.

For the molecule B2, the binding result in test [1] and in test [2] was “binds” each time.

These data come from publication PMC8489103, “The collagen structure of C1q induces wound healing by engaging discoidin domain receptor 2” (Molecular Medicine, 2021).
